Substrate: CC(=O)Oc1ccc([N+](=O)[O-])cc1
Experiment: purified protein
Format: biochemical, Pseudideonella sakaiensis
Settings: 50 mM Na2HPO4 pH 7.5, 30 °C, 5% v/v DMSO, 10 nM enzyme, 0-5.0 mM substrate

B1: IsPETase-WT (Pseudideonella sakaiensis) (protein)
chain: QTNPYARGPNPTAASLEASAGPFTVRSFTVSRPSGYGAGTVYYPTNAGGTVGAIAIVPGYTARQSSIKWWGPRLASHGFVVITIDTNSTLDQPSSRSSQQMAALRQVASLNGTSSSPIYGKVDTARMGVMGWSMGGGGSLISAANNPSLKAAAPQAPWDSSTNFSSVTVPTLIFACENDSIAPVNSSALPIYDSMSRNAKQFLEINGGSHSCANSGNSNQALIGKKGVAWMKRFMDNDTRYSTFACENPNSTRVSDFRTANCS
notes: linear wild-type enzyme, synthetic gene in pET-28a(+) or pET-21b(+), E. coli Shuffle T7 Express, Ni-NTA and SEC; monomer
Protein B1 has a Km of 2700 ± 300 µM.

— paper PMC9870871, “Investigating the effects of cyclic topology on the performance of a plastic degrading enzyme for polyethylene terephthalate degradation” (Scientific Reports, 2023)
